Measured values taken from patent US20250250357A1.

Key:
[1] = molecular target: monkey MSLN full-length protein (NCBI: XP_028696439.1) expressed on HEK293T-monkey MSLN cells (monkey); assay: FACS on HEK293T-monkey MSLN cells
[2] = molecular target: human MSLN on OVCAR3 tumor cells (human) (UniProt Q13421); assay: FACS, OVCAR3 cells
human MSLN on OVCAR3 tumor cells (human), sequence (Q13421 other isoform, or with tags, fused parts or gaps): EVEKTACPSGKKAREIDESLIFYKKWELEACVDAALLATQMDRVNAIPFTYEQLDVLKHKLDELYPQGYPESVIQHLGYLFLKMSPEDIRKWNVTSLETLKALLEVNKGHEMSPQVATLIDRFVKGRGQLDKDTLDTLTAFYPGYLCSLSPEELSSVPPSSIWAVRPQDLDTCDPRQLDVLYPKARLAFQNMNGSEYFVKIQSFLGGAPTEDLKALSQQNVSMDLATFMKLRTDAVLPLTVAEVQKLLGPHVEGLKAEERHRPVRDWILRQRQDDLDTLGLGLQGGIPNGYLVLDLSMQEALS

Maximum mean fluorescence intensity [1] | Maximum MFI [2] | Binder
1000 | – | S009-F2.58.8 (antibody, human IgG1, kappa, V domains shown) VH: QVQLLQSGAELAKPGASVKLSCKASGYTFTSYWVHWVKQRPGQGLEWIGYINPNSGYTKYNQKFKDKATLTADKSSSTAYMQLSSLTYEDSAVYYCADHYYGSSRDYFDYWGQGTTLTVSS VL: QIVLTQSPAIMSASPGEKVTMTCSASSSVSYMYWYQQRPGSSPRLLIYDTSNLASGVPVRFSGSGSGTSYSLTISRMEAEDAATYYCQQWNSYPYTFGGGTKLEIKR
965 | – | S009-F1.62.9 (antibody, human IgG1, kappa, V domains shown) VH: EVQLQQSGADLVKPGASVKLSCTVFGLNFKDTFMHWVRQRPEQGLEWIGRIDPANDNSIYGPKFQDKATITADTSSNTAYLHLSSLTSEDTAVYYCLYFDNWGHGTTLTVSS VL: DIVMTQAASSEPVTPGESVSISCRSDKSLLHSNGHNYLYWFLQRPGQSPHLLIYRMSNLASGVPDRFSGSGSGTAFTLRISRVEAEDVGVYYCMQHLEYPLTFGAGTKLELKR
1420 | – | S009-F1.59.1 (antibody, human IgG1, kappa, V domains shown) VH: EVKLEGSGGGLVQPGGSMMLSCVATGFTFSSYWMNWVRQSPDRGLEWVAEIRLKSNGFAAFYAESVKGRFTISRDDSKSSVYLQMNNLRTEDTGIYYCTYFVHWGQGILVTVSE VL: DIVLTQSPTSLAVSLGQRATISCRTSESVEYFGTILIQWYQQKPGQPPKLLIFGASNVESGVPARFSGSGSGTDFSLNIHPVEEEDIAMYFCQQNRKVPYTFGGGTTLELKR
– | 499 MFI | F3.38.10-L2H3a (scFv, not shown: small tags and cut ends) scFv: DIVMTQSPDSLAVSLGERATINCRSSQSLIHSDGNTYLQWYQQKPGQSPKLLIYKVSNRFSGVPDRFSGSGSGTDFTLTISSLQAEDVAVYYCSQTTHVPFTFGQGTKLEIKGGGGSGGGGSGGGGSEVQLVQSGAEVKKPGASVKVSCKASGYIFTDYYMNWVRQAPGQRLEWMGVINPKQGVISHNQKFKGRVTITVDKSANTAYMELSSLRSEDTAVYYCANYGSRFYAMDYWGQGTTVTVSS
